{
  "source": "patent US10182986B2",
  "about": "“Method of delivering therapeutics and imaging agents to the brain by nanoparticles that cross the blood brain barrier” (CALIFORNIA INSTITUTE OF TECHNOLOGY, priority 2013, dated 2019)",
  "assay": "Tf-DAK-PEG-OPSS degradation in pH 5.5 buffer followed by MALDI-TOF",
  "format": "physicochemical",
  "details": "37° C., crude mixture",
  "protocol": "At various time points, aliquots were removed, diluted 1:10 in 10 mM NaH2PO4 pH 8.0 and frozen on CO2(s). Once the last aliquot was removed, all samples were melted and immediately measured by MALDI-TOF using a sinapinic acid matrix.",
  "data": [
    {"substance": "Tf-DAK-PEG-OPSS: human holo-Tf conjugated through diamino ketal (DAK) linker to PEG-orthopyridyl disulfide", "values": [
      {"measurement": "Time by which nearly all the PEG has cleaved", "value": "≤ 2", "unit": "h"}
    ]}
  ]
}
